Measured values as given in US20090099029.

T1: Bovine, dephosphorylated, Myelin Basic Protein (MBP), P02687
T1 chain: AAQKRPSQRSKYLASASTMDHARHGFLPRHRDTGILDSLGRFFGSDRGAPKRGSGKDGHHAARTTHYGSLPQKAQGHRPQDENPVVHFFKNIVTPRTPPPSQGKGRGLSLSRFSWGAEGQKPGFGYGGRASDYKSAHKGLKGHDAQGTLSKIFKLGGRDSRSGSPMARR

B1: MUSK (protein)
chain: CCRRRKQWKNKKRESAAVTLTTLPSELLLDRLHPNPMYQRMPLLLNPKLLSLEYPRNNIEYVRDIGEGAFGRVFQARAPGLLPYEPFTMVAVKMLKEEASADMQADFQREAALMAEFDNPNIVKLLGVCAVGKPMCLLFEYMAYGDLNEFLRSMSPHTVCSLSHSDLSMRAQVSSPGPPPLSCAEQLCIARQVAAGMAYLSERKFVHRDLATRNCLVGENMVVKIADFGLSRNIYSADYYKANENDAIPIRWMPPESIFYNRYTTESDVWAYGVVLWEIFSYGLQPYYGMAHEEVIYYVRDGNILSCPENCPVELYNLMRLCWSKLPADRPSFTSIHRILERMCERAEGTVSV
B2: PDGFRB (protein)
chain: MLWQKKPRYEIRWKVIESVSSDGHEYIYVDPMQLPYDSTWELPRDQLVLGRTLGSGAFGQVVEATAHGLSHSQATMKVAVKMLKSTARSSEKQALMSELKIMSHLGPHLNVVNLLGACTKGGPIYIITEYCRYGDLVDYLHRNKHTFLQHHSDKRRPPSAELYSNALPVGLPLPSHVSLTGESDGGYMDMSKDESVDYVPMLDMKGDVKYADIESSNYMAPYDNYVPSAPERTCRATLINESPVLSYMDLVGFSYQVANGMEFLASKNCVHRDLAARNVLICEGKLVKICDFGLARDIMRDSNYISKGSTFLPLKWMAPESIFNSLYTTLSDVWSFGILLWEIFTLGGTPYPELPMNEQFYNAIKRGYRMAQPAHASDEIYEIMQKCWEEKFEIRPPFSQLVLLLERLLGEGYKKKYQQVDEEFLRSDHPAILRSQARLPGFHGLRSPLDTSSVLYTAVQPNEGDNDYIIPLPDPKPEVADEGPLEGSPSLASSTLNEVNTSSTISCDSPLEPQDEPEPEPQLELQVEPEPELEQLPDSGCPAPRAEAEDSFL
B3: PDGFRA (protein)
chain: KQKPRYEIRWRVIESISPDGHEYIYVDPMQLPYDSRWEFPRDGLVLGRVLGSGAFGKVVEGTAYGLSRSQPVMKVAVKMLKPTARSSEKQALMSELKIMTHLGPHLNIVNLLGACTKSGPIYIITEYCFYGDLVNYLHKNRDSFLSHHPEKPKKELDIFGLNPADESTRSYVILSFENNGDYMDMKQADTTQYVPMLERKEVSKYSDIQRSLYDRPASYKKKSMLDSEVKNLLSDDNSEGLTLLDLLSFTYQVARGMEFLASKNCVHRDLAARNVLLAQGKIVKICDFGLARDIMHDSNYVSKGSTFLPVKWMAPESIFDNLYTTLSDVWSYGILLWEIFSLGGTPYPGMMVDSTFYNKIKSGYRMAKPDHATSEVYEIMVKCWNSEPEKRPSFYHLSEIVENLLPGQYKKSYEKIHLDFLKSDHPAVARMRVDSDNAYIGVTYKNEEDKLKDWEGGLDEQRLSADSGYIIPLPDIDPVPEEEDLGKRNRHSSQTSEESAIETGSSSSTFIKREDETIEDIDMMDDIGIDSSDLVEDSFL
B4: PDGFRA, T674I (protein)
chain: KQKPRYEIRWRVIESISPDGHEYIYVDPMQLPYDSRWEFPRDGLVLGRVLGSGAFGKVVEGTAYGLSRSQPVMKVAVKMLKPTARSSEKQALMSELKIMTHLGPHLNIVNLLGACTKSGPIYIIIEYCFYGDLVNYLHKNRDSFLSHHPEKPKKELDIFGLNPADESTRSYVILSFENNGDYMDMKQADTTQYVPMLERKEVSKYSDIQRSLYDRPASYKKKSMLDSEVKNLLSDDNSEGLTLLDLLSFTYQVARGMEFLASKNCVHRDLAARNVLLAQGKIVKICDFGLARDIMHDSNYVSKGSTFLPVKWMAPESIFDNLYTTLSDVWSYGILLWEIFSLGGTPYPGMMVDSTFYNKIKSGYRMAKPDHATSEVYEIMVKCWNSEPEKRPSFYHLSEIVENLLPGQYKKSYEKIHLDFLKSDHPAVARMRVDSDNAYIGVTYKNEEDKLKDWEGGLDEQRLSADSGYIIPLPDIDPVPEEEDLGKRNRHSSQTSEESAIETGSSSSTFIKREDETIEDIDMMDDIGIDSSDLVEDSFL
B5: RET (protein)
chain: HCYHKFAHKPPISSAEMTFRRPAQAFPVSYSSSGARRPSLDSMENQVSVDAFKILEDPKWEFPRKNLVLGKTLGEGEFGKVVKATAFHLKGRAGYTTVAVKMLKENASPSELRDLLSEFNVLKQVNHPHVIKLYGACSQDGPLLLIVEYAKYGSLRGFLRESRKVGPGYLGSGGSRNSSSLDHPDERALTMGDLISFAWQISQGMQYLAEMKLVHRDLAARNILVAEGRKMKISDFGLSRDVYEEDSYVKRSQGRIPVKWMAIESLFDHIYTTQSDVWSFGVLLWEIVTLGGNPYPGIPPERLFNLLKTGHRMERPDNCSEEMYRLMLQCWKQEPDKRPVFADISKDLEKMMVKRRDYLDLAASTPSDSLIYDDGLSEEETPLVDCNNAPLPRALPSTWIENKLYGMSDPNWPGESPVPLTRADGTNTGFPRYPNDSVYANWMLSPSAAKLMDTFDS
B6: MERTK (protein)
chain: KRVQETKFGNAFTEEDSELVVNYIAKKSFCRRAIELTLHSLGVSEELQNKLEDVVIDRNLLILGKILGEGEFGSVMEGNLKQEDGTSLKVAVKTMKLDNSSQREIEEFLSEAACMKDFSHPNVIRLLGVCIEMSSQGIPKPMVILPFMKYGDLHTYLLYSRLETGPKHIPLQTLLKFMVDIALGMEYLSNRNFLHRDLAARNCMLRDDMTVCVADFGLSKKIYSGDYYRQGRIAKMPVKWIAIESLADRVYTSKSDVWAFGVTMWEIATRGMTPYPGVQNHEMYDYLLHGHRLKQPEDCLDELYEIMYSCWRTDPLDRPTFSVLRLQLEKLLESLPDVRNQADVIYVNTQLLESSEGLAQGSTLAPLDLNIDPDSIIASCTPRAAISVVTAEVHDSKPHEGRYILNGGSEEWEDLTSAPSAAVTAEKNSVLPGERLVRNGVSWSHSSMLPLGSSLPDELLFADDSSEGSEVLM
B7: TYRO3 (protein)
chain: LRKRRKETRFGQAFDSVMARGEPAVHFRAARSFNRERPERIEATLDSLGISDELKEKLEDVLIPEQQFTLGRMLGKGEFGSVREAQLKQEDGSFVKVAVKMLKADIIASSDIEEFLREAACMKEFDHPHVAKLVGVSLRSRAKGRLPIPMVILPFMKHGDLHAFLLASRIGENPFNLPLQTLIRFMVDIACGMEYLSSRNFIHRDLAARNCMLAEDMTVCVADFGLSRKIYSGDYYRQGCASKLPVKWLALESLADNLYTVQSDVWAFGVTMWEIMTRGQTPYAGIENAEIYNYLIGGNRLKQPPECMEDVYDLMYQCWSADPKQRPSFTCLRMELENILGQLSVLSASQDPLYINIERAEEPTAGGSLELPGRDQPYSGAGDGSGMGAVGGTPSDCRYILTPGGLAEQPGQAEHQPESPLNETQRLLLLQQGLLPHSSC
B8: CSF1R (protein)
chain: YKYKQKPKYQVRWKIIESYEGNSYTFIDPTQLPYNEKWEFPRNNLQFGKTLGAGAFGKVVEATAFGLGKEDAVLKVAVKMLKSTAHADEKEALMSELKIMSHLGQHENIVNLLGACTHGGPVLVITEYCCYGDLLNFLRRKAEAMLGPSLSPGQDPEGGVDYKNIHLEKKYVRRDSGFSSQGVDTYVEMRPVSTSSNDSFSEQDLDKEDGRPLELRDLLHFSSQVAQGMAFLASKNCIHRDVAARNVLLTNGHVAKIGDFGLARDIMNDSNYIVKGNARLPVKWMAPESIFDCVYTVQSDVWSYGILLWEIFSLGLNPYPGILVNSKFYKLVKDGYQMAQPAFAPKNIYSIMQACWALEPTHRPTFQQICSFLQEQAQEDRRERDYTNLPSSSRSGGSGSSSSELEEESSSEHLTCCEQGDIAQPLLQPNNYQFC
B9: ROS1 (protein)
chain: HRRLKNQKSAKEGVTVLINEDKELAELRGLAAGVGLANACYAIHTLPTQEEIENLPAFPREKLTLRLLLGSGAFGEVYEGTAVDILGVGSGEIKVAVKTLKKGSTDQEKIEFLKEAHLMSKFNHPNILKQLGVCLLNEPQYIILELMEGGDLLTYLRKARMATFYGPLLTLVDLVDLCVDISKGCVYLERMHFIHRDLAARNCLVSVKDYTSPRIVKIGDFGLARDIYKNDYYRKRGEGLLPVRWMAPESLMDGIFTTQSDVWSFGILIWEILTLGHQPYPAHSNLDVLNYVQTGGRLEPPRNCPDDLWNLMTQCWAQEPDQRPTFHRIQDQLQLFRNFFLNSIYKSRDEANNSGVINESFEGEDGDVICLNSDDIMPVALMETKNREGLNYMVLATECGQGEEKSEGPLGSQESESCGLRKEEKEPHADKDFCQEKQVAYCPSGKPEGLNYACLTHSGYGDGSD
B10: MET (protein)
chain: KKRKQIKDLGSELVRYDARVHTPHLDRLVSARSVSPTTEMVSNESVDYRATFPEDQFPNSSQNGSCRQVQYPLTDMSPILTSGDSDISSPLLQNTVHIDLSALNPELVQAVQHVVIGPSSLIVHFNEVIGRGHFGCVYHGTLLDNDGKKIHCAVKSLNRITDIGEVSQFLTEGIIMKDFSHPNVLSLLGICLRSEGSPLVVLPYMKHGDLRNFIRNETHNPTVKDLIGFGLQVAKGMKYLASKKFVHRDLAARNCMLDEKFTVKVADFGLARDMYDKEYYSVHNKTGAKLPVKWMALESLQTQKFTTKSDVWSFGVLLWELMTRGAPPYPDVNTFDITVYLLQGRRLLQPEYCPDPLYEVMLKCWHPKAEMRPSFSELVSRISAIFSTFIGEHYVHVNATYVNVKCVAPYPSLLSSEDNADDEVDTRPASFWETS

Target: T1, Bovine, dephosphorylated, Myelin Basic …
With B1 the “MBP Kinase Activity” value was “Negative”. In the case of B2, the “MBP Kinase Activity” value is reported as “Strong”. With B3 the “MBP Kinase Activity” value was “Strong”. With B4 the “MBP Kinase Activity” value was “Negative”. With B5 the “MBP Kinase Activity” value was “Strong”. B6 was tested, and the “MBP Kinase Activity” value was “Strong”. With B7 the “MBP Kinase Activity” value was “Strong”. B8 was tested, and the “MBP Kinase Activity” value was “Strong”. For B9, the “MBP Kinase Activity” value was “Strong”. For B10, the “MBP Kinase Activity” value was “Strong”.
